Measured values: patent US20040223968A1

Columns and labels:
Assay in all cases: cell-based or functional assay
[1] = biological target: MCP-1RB (monocyte chemoattractant protein-1 receptor B) (human) (UniProt P41597)
[2] = biological target: MCP-1RA (monocyte chemoattractant protein-1 receptor A) (human) (UniProt P41597)
[3] = biological target: MIP-1α/RANTES receptor (Homo sapiens (Human)) (UniProt P32246)
MIP-1α/RANTES receptor (Homo sapiens (Human)), sequence (P32246 whole entry): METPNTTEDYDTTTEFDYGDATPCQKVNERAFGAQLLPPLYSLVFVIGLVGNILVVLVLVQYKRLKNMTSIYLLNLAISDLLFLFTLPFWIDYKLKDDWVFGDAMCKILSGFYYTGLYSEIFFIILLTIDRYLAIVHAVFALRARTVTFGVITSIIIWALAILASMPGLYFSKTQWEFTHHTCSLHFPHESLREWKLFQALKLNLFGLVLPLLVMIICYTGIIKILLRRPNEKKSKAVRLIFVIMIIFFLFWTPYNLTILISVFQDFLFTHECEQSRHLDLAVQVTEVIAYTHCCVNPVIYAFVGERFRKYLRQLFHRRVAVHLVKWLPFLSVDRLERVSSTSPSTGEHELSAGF

MCP-1RB (monocyte chemoattractant protein-1 receptor B) (human), sequence (P41597 other isoform, or with tags, fused parts or gaps): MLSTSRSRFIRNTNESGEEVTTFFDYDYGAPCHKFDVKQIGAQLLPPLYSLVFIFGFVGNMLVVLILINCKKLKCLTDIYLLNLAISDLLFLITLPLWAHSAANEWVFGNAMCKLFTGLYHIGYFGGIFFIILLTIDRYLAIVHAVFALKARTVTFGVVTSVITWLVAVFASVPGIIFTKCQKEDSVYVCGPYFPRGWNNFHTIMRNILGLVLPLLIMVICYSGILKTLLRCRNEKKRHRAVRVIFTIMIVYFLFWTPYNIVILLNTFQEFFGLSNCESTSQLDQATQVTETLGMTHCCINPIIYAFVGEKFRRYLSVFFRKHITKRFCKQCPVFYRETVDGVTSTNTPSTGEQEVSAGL
MCP-1RA (monocyte chemoattractant protein-1 receptor A) (human), sequence (P41597 whole entry): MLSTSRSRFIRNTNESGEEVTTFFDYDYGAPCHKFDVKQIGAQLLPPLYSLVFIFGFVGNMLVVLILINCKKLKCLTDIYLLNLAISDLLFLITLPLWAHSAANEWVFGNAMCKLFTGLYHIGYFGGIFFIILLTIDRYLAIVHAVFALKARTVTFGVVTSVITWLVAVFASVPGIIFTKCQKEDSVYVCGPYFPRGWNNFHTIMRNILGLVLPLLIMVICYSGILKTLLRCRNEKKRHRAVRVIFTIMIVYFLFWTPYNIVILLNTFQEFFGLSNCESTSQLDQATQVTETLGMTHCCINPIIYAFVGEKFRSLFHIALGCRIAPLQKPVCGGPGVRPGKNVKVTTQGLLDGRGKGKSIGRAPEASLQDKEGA

| IC50(nM), Inhibition of Adenylyl Cyclase, 293 cells stably expressing MCP-1RB [1] | IC50(nM), Inhibition of Adenylyl Cyclase, 293 cells stably expressing the MIP-1α/RANTES receptor [3] | Substance | further results |
| --- | --- | --- | --- |
| > 1000 nM | – | RANTES (from UniProt P13501 24-91) (ligand) | – |
| > 1000 nM | – | MIP-1β (from UniProt P13236 24-92) (ligand) | – |
| 0.09 nM | 820 nM | MCP-1 (monocyte chemoattractant protein-1) (from UniProt P13500 24-99) (ligand) | EC50, 45Ca efflux in Xenopus oocytes injected with receptor cRNA [2]: 15 nM; EC50, 45Ca efflux in Xenopus oocytes injected with receptor cRNA [1]: 15 nM; EC50, intracellular calcium mobilization (indo-1) in stably transfected MCP-1RB/293 cells [1]: 3.4 nM; Selectivity (MCP-1RB against the MIP-1α/RANTES receptor, from the adenylyl cyclase IC50s) [1]: > 9000 fold; block of the forskolin-induced increase of cAMP in MCP-1RB-transfected 293 cells [1]: 78%; reduction of basal cAMP accumulation in MCP-1RB-transfected 293 cells [1]: 55% |
| > 1000 nM | – | IL-8 (interleukin-8) (from UniProt P10145 28-99) (ligand) | – |
| > 1000 nM | > 1000 nM | Gro-α (from UniProt P09341 35-107) (ligand) | – |
| > 1000 nM | – | MIP-1α (from UniProt P10147 27-92) (ligand) | – |
